Data taken from publication PMC12436637.

Biological target: low-density lipoprotein receptor LRP1 on human iPSC-derived cortical excitatory neurons (human (endogenous in iPSC-derived neurons)) (UniProt Q07954)
Sequence of UniProt Q07954 (Q07954 20-4544): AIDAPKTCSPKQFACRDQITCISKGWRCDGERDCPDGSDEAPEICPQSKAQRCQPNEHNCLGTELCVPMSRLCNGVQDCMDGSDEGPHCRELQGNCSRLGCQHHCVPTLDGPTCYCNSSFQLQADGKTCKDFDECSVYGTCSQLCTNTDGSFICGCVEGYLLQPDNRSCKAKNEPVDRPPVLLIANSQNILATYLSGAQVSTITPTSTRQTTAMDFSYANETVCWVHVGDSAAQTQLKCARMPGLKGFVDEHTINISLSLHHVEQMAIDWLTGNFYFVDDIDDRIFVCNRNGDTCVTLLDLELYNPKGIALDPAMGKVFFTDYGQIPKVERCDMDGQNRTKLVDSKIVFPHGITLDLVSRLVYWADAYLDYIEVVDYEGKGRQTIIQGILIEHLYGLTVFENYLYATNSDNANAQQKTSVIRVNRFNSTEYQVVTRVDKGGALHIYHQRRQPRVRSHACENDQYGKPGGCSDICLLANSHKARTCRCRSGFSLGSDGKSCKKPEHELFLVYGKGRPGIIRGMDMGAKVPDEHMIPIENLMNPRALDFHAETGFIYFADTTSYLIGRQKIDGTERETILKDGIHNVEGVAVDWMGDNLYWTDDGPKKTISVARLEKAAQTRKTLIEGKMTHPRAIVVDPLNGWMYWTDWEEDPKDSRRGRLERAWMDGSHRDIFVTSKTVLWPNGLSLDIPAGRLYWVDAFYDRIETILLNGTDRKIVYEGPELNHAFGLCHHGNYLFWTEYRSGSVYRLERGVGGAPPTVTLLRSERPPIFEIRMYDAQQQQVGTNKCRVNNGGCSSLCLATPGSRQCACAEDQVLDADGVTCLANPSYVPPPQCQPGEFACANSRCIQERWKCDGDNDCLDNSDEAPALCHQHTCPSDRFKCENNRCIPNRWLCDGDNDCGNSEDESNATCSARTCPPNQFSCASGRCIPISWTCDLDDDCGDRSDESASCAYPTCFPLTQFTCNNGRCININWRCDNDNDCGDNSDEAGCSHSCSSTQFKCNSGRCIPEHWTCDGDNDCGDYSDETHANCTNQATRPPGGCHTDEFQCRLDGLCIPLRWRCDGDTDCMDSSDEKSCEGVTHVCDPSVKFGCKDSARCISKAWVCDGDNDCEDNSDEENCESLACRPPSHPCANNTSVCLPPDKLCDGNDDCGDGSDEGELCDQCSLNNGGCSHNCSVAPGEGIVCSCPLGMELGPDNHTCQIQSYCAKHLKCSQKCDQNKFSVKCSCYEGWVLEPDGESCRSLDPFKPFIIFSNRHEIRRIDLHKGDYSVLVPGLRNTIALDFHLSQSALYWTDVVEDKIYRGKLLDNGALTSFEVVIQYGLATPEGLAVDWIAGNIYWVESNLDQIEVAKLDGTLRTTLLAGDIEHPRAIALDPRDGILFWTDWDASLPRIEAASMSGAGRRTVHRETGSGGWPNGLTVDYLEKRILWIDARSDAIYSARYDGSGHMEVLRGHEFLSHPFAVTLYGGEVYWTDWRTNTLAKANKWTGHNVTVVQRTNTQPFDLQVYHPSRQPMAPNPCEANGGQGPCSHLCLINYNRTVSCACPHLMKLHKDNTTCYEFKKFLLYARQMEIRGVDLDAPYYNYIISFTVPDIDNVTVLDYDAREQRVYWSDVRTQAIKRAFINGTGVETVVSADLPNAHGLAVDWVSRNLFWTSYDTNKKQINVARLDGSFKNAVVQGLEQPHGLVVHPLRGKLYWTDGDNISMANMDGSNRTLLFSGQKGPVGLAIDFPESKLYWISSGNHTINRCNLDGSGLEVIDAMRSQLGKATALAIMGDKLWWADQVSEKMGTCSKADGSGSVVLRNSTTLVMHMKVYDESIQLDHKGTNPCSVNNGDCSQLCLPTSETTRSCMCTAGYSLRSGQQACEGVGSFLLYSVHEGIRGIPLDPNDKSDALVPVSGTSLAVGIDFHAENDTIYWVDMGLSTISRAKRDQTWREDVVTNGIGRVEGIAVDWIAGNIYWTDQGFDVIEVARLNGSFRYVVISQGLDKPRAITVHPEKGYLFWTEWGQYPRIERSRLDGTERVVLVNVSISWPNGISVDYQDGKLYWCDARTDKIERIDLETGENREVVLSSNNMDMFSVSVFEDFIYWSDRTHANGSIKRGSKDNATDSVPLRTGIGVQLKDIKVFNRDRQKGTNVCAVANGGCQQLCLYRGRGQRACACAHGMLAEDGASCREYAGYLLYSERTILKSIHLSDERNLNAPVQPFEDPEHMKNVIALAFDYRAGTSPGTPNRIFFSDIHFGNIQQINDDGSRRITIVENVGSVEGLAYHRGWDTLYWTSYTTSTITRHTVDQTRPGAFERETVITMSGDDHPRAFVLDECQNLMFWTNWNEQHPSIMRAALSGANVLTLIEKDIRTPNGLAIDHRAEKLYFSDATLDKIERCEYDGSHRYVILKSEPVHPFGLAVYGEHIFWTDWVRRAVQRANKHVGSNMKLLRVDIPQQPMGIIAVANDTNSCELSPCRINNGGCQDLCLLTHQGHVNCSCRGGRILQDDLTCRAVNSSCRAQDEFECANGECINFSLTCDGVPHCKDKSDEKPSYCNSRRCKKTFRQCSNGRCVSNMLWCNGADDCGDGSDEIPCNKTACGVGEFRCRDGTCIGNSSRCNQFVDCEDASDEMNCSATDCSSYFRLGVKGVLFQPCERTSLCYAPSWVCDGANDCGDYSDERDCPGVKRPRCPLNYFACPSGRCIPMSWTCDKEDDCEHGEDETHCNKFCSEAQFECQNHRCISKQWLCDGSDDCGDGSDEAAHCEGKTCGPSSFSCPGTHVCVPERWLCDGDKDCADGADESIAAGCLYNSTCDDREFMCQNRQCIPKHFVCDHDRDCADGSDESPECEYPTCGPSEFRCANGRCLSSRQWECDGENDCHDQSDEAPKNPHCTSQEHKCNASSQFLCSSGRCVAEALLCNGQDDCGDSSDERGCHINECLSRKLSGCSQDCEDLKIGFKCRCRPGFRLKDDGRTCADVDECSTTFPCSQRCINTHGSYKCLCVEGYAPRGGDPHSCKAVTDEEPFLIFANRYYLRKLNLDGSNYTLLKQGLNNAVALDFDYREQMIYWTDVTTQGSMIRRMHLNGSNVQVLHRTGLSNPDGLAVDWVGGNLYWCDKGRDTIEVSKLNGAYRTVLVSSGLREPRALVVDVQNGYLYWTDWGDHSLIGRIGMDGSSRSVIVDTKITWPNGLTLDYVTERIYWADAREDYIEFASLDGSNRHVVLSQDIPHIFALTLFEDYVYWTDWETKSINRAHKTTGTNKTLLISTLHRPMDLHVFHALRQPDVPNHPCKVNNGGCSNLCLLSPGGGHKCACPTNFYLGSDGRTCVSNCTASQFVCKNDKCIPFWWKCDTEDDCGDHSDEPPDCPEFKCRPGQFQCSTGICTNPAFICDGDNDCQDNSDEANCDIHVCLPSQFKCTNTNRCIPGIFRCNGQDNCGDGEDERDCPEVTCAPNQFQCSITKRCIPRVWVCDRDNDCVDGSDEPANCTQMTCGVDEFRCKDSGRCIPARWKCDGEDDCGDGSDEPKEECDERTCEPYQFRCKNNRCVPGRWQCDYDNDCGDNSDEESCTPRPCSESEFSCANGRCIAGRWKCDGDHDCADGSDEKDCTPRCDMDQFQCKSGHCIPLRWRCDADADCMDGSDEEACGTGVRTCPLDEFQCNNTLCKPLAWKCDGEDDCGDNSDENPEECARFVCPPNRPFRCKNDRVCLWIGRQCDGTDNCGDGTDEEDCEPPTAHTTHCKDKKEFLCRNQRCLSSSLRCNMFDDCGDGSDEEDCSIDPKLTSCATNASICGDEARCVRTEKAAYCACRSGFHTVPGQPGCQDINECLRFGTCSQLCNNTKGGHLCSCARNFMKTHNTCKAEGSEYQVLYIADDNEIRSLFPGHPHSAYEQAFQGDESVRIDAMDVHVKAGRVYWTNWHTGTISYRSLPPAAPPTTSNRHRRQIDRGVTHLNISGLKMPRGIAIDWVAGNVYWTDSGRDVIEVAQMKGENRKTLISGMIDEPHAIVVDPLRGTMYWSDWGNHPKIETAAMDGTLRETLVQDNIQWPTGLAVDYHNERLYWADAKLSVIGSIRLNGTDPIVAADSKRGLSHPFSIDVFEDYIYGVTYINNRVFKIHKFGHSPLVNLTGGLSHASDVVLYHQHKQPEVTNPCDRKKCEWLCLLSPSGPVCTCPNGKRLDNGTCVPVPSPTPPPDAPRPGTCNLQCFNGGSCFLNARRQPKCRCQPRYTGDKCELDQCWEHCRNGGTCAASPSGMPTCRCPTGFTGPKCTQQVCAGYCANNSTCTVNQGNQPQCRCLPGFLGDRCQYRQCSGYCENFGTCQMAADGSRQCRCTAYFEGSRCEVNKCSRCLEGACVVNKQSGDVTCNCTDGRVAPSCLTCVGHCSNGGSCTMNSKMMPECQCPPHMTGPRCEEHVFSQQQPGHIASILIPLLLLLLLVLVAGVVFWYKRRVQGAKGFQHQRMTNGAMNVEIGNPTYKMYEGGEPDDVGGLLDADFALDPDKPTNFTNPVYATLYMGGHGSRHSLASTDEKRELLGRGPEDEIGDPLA

decrease in neuronal uptake of monomeric tau-pHrodo (tau-positive objects, live imaging over 4 h) with 100 nM soluble recombinant LRP1 domain IV (Human LRP1 Cluster IV Fc Chimera, R&D Systems) added: 68%
neuronal uptake of monomeric tau-pHrodo (tau-positive objects, live imaging over 4 h) with 10 nM RAP chaperone (Human LRPAP Protein, R&D Systems) added to block LDL receptors: 63%
Substance: monomeric tau P301S (tau P301S_FLAG×3_10×his-tag), pHrodo-labelled (natural protein)
